In one assay the target is Human glu-plasminogen. Kind of assay: ELISA. Conditions: 5 μg/ml immobilized CbiA protein, 10 μg/ml plasminogen, polyclonal antibody 1:1,000, read off a plot.
The target of assay [1] is His6-tagged CbiA of B. miyamotoi (B. miyamotoi). The assay can be described thus: ELISA; CbiA (5 μg/ml) immobilised, increasing concentrations of plasminogen; non-linear regression, one-site specific binding model; apparent dissociation constant.
For assay [2] the target is unchanged. Kind of assay: ELISA; proteins (5 μg/ml) immobilised, plasminogen in the presence of increasing concentrations of the lysine analog tranexamic acid; binding without tranexamic acid set to 100%. (An ELISA detects its analyte on a solid surface through an enzyme-linked reagent.)
For assay [3] the target is unchanged. Kind of assay: ELISA; proteins (5 μg/ml) immobilised, plasminogen in the presence of increasing concentrations of NaBr; binding without NaBr set to 100%.

Some results are limits rather than exact numbers.

“His6-tagged CbiA of B. miyamotoi K154A; R156A”: the response (Absorbance at 490 nm) with Human glu-plasminogen (parent: est. 0.78) came out at 0.58. For “His6-tagged CbiA of B. miyamotoi K153A; K154A; K162A; K188A”, the response (Absorbance at 490 nm) with Human glu-plasminogen (parent: est. 0.72) is 1. In the case of Human glu-plasminogen (natural protein), the Kd in assay [1] was 347 nM. For the same substance, in assay [2], the percent decrease of binding with 0.1 mM tranexamic acid is above 17% and the percent of binding at 10 mM tranexamic acid (without tranexamic acid = 100%) was determined as 48%. Further, the percent of binding at 250 mM NaBr (without NaBr = 100%) in assay [3] was 43%. Take His6-tagged CbiA of B. miyamotoi R185A: the response (Absorbance at 490 nm) with Human glu-plasminogen (parent: est. 0.78) stood at 0.81. His6-tagged CbiA of B. miyamotoi K188A: the response (Absorbance at 490 nm) with Human glu-plasminogen (parent: est. 0.72) is 0.81. Still for that read-out and setting: then His6-tagged CbiA of B. miyamotoi K162A, with 1.

His6-tagged CbiA of B. miyamotoi R145A: the response (Absorbance at 490 nm) with Human glu-plasminogen (parent: est. 0.78) is 0.66. In the case of “His6-tagged CbiA of B. miyamotoi K154A; K162A”, the response (Absorbance at 490 nm) with Human glu-plasminogen (parent: est. 0.72) came out at 0.9.

As to “His6-tagged CbiA of B. miyamotoi K154A; K162A; K188A”, the response (Absorbance at 490 nm) with Human glu-plasminogen (parent: est. 0.72) worked out at 1. His6-tagged CbiA of B. miyamotoi R163A: the response (Absorbance at 490 nm) with Human glu-plasminogen (parent: est. 0.78) was 0.74.

On to His6-tagged CbiA of B. miyamotoi K154A, for which the response (Absorbance at 490 nm) with Human glu-plasminogen (parent: est. 0.72) turned out to be 0.83.

Consider His6-tagged CbiA of B. miyamotoi R156A, for which the response (Absorbance at 490 nm) in the assay with Human glu-plasminogen (parent: est. 0.78) was found to be 0.6. Consider His6-tagged CbiA of B. miyamotoi K153A, for which, in the assay with Human glu-plasminogen (parent: est. 0.72), the response (Absorbance at 490 nm) was 1.1.

These data come from paper PMC5801413.
